Publication PMC2132596

Experiments:
[1] = target: human P-cadherin–Fc fusion protein (human) (UniProt P22223); assay: cell adhesion assay
[2] = target: purified human IgG1 (human); assay: cell adhesion assay

Sequence of human P-cadherin–Fc fusion protein (human) (P22223 108-654): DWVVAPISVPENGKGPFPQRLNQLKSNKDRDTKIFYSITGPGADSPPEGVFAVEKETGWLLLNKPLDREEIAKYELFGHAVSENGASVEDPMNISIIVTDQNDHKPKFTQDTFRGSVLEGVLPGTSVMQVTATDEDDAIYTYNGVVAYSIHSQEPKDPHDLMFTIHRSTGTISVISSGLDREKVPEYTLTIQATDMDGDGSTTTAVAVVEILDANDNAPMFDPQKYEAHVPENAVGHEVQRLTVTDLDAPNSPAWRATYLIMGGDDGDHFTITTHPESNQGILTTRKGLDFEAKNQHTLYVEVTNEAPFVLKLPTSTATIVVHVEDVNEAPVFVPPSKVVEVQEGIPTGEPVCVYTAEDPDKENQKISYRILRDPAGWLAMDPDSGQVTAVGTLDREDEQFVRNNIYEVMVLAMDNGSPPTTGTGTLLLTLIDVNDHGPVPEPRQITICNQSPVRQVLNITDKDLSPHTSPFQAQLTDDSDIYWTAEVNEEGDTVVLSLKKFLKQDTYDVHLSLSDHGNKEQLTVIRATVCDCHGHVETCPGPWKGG

“integrin αEβ7 of cultured human intestinal intraepithelial lymphocytes (from UniProt P38570 19-1179; P26010 20-798) (complex)” was tested, and the fold more coated fusion protein needed than of E-cadherin–Fc [1] was over 100 fold and the percent of cells adhering at 500 ng/well [1] was 40%.

With “αEβ7 on JY′ cells transfected with full-length human αE (JY′-αE) (from UniProt P38570 19-1179; P26010 20-798) (complex)” the percent of cells adhering [2] was under 3%.
